From article PMC2808226 (Molecular Biology of the Cell, 2010) come the findings set out here.

Assay [1] deals with nicotinic acetylcholine receptor (mouse (endogenous in gastrocnemius muscle and in myotubes)) (UniProt P04756). Description: pull-down.
Assay [2] concerns the target nAChR-α-c-myc (UniProt P04756 21-457). Description: co-IP.

Sequence of nicotinic acetylcholine receptor (mouse (endogenous in gastrocnemius muscle and in myotubes)) (P04756 whole entry, looked up): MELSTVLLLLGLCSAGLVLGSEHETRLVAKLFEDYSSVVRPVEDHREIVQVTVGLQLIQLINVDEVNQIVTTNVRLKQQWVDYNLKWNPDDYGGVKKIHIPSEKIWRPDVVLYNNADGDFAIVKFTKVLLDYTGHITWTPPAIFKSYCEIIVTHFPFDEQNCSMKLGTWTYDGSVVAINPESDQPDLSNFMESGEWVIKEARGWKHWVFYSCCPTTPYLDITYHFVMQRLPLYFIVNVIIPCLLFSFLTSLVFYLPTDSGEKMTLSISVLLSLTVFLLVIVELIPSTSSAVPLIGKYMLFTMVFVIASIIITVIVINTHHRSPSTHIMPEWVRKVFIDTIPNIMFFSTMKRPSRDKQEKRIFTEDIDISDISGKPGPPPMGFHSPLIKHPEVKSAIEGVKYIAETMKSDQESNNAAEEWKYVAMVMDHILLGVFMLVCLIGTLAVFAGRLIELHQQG
Sequence of nAChR-α-c-myc (P04756 21-457): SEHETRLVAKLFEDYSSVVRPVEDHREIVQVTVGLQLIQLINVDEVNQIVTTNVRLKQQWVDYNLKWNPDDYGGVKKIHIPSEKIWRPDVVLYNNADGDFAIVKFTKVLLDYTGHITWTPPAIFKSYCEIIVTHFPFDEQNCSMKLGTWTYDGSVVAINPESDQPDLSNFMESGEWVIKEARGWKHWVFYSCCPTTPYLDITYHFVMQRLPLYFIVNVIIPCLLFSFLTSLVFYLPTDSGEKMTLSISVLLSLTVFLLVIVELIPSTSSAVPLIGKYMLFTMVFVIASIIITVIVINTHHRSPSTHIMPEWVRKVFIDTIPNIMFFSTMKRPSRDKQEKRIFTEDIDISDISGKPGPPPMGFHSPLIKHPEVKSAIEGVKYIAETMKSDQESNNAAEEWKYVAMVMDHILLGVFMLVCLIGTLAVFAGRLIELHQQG

“caveolin-3 (from UniProt P51637 1-151) (natural protein)” came in with a percent of caveolin-3 that interacts with the nAChR, after agrin treatment in assay [1] of 5%.

B1: caveolin-3-c-myc (natural protein)
chain: MMTEEHTDLEARIIKDIHCKEIDLVNRDPKNINEDIVKVDFEDVIAEPEGTYSFDGVWKVSFTTFTVSKYWCYRLLSTLLGVPLALLWGFLFACISFCHIWAVVPCIKSYLIEIQCISHIYSLCIRTFCNPLFAALGQVCSNIKVVLRREG
In assay [1], B1 gave a percent of caveolin-3 that interacts with the nAChR, resting conditions of 0.25%. Also, in assay [2], the “stoichiometry N” value is approximately 14 caveolin-3 per nAChR.

Usually stoichiometry N stands for the number of molecules, sites or subunits per partner or assembly.
